Experimental data reported in PMC2112702 (The Journal of Cell Biology, 1983).

Molecular target: clathrin (Mr ~180,000 polypeptide) (bovine (calf brain), UniProt P49951 1-1675)
Assay: co-sedimentation

Sequence of clathrin (Mr ~180,000 polypeptide) (P49951 whole entry): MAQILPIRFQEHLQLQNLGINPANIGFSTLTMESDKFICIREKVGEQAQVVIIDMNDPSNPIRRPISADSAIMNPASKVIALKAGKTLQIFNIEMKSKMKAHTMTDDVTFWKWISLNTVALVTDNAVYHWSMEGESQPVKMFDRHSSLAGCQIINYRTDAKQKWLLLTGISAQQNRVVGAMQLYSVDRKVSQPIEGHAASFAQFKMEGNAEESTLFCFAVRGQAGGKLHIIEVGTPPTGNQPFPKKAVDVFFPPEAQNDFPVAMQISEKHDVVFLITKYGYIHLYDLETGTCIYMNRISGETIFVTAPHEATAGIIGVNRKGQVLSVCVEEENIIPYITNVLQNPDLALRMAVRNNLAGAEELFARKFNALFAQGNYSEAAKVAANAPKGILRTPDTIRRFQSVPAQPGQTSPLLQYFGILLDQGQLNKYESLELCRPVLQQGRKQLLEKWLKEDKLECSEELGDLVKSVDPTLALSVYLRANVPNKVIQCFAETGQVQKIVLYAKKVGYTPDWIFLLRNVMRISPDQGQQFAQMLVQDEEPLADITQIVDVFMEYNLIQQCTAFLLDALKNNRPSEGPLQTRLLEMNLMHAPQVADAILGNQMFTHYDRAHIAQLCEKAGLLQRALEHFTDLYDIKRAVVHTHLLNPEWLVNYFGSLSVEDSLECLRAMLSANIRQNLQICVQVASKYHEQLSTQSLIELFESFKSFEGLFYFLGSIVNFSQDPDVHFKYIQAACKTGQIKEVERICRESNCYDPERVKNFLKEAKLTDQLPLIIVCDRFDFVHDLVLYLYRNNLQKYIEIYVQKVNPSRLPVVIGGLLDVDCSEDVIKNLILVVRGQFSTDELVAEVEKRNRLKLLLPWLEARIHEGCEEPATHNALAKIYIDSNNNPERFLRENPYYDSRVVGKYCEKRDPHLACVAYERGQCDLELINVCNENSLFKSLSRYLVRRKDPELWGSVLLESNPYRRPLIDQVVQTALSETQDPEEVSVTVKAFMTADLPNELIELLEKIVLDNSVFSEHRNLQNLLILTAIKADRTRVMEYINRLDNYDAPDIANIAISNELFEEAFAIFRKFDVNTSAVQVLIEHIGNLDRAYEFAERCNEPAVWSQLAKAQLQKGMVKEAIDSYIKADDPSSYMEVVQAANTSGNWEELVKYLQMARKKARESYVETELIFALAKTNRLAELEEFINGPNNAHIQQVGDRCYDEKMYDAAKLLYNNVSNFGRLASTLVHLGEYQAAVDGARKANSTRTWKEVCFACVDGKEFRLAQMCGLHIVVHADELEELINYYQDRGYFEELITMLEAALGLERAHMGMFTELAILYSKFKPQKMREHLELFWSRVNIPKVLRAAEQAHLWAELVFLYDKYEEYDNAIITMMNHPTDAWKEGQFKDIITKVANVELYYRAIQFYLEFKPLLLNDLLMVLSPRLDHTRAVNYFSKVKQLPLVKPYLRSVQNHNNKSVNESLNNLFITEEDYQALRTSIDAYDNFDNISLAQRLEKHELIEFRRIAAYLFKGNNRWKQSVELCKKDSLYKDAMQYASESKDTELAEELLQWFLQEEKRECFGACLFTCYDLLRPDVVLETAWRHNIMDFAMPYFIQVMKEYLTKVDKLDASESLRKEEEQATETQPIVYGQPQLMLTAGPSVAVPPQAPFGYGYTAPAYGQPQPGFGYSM

| Binder | stoichiometry N |
| --- | --- |
| clathrin light chain, Mr 33,000 (natural protein, bovine (calf brain), UniProt P04975 1-228, looked up) MADDFGFFSSSESGAPEAAEEDPAAAFLAQQESEIAGIENDEGFGAPAGSQGGLAQPGPASGASEDMGATVNGDVFQEANGPADGYAAIAQADRLTQEPESIRKWREEQRKRLQELDAASKVMEQEWREKAKKDLEEWNQRQSEQVEKNKINNRIADKAFYQQPDADIIGYVASEEAFVKESKEETPGTEWEKVAQLCDFNPKSSKQCKDVSRLRSVLMSLKQTPLSR | 1.62 mol per 3.00 mol of 180,000 clathrin (one triskelion) |
| clathrin light chain, Mr 36,000 (natural protein, bovine (calf brain), UniProt P04973 1-243, looked up) MAELDPFGVPAGGPALGNGVAGEEDPAAAFLAQQESEIAGIENDEAFAILDGGAPGSQPHGEPPGIPDAVDGVTNGDYYQESNGPTDSYAAISQVDRLQSEPESIRKWREEQTERLEALDANSRKQEAEWKEKAIKELDEWYARQDEQLQKTKANNRVADEAFYKQPFADVIGYVTNINHPCYSLEQAAEEAFVNDIEESSPGTEWERVARLCDFNPKSSKQAKDVSRMRSVLISLKQAPLVH | 0.83 mol per 3.00 mol of 180,000 clathrin (one triskelion) |
